Data reported in US20260144882A1 (BIO THERA SOLUTIONS, published 2026).

T1: human Nectin-4 extracellular antigen hNectin-4-His (human, UniProt Q96NY8 32-349)
T1 construct: C-terminal 8xHis tag included
T1 sequence: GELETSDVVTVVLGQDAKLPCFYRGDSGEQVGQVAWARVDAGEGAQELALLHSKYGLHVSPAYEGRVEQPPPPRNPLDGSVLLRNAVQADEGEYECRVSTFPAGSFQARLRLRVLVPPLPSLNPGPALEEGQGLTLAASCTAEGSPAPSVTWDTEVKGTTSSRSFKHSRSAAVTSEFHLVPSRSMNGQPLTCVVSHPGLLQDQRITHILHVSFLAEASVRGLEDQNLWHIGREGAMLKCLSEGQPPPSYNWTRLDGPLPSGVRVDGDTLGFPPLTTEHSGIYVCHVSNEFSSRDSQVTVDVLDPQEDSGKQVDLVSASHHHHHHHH


target: T1, human Nectin-4 extracellular antigen …; assay: ELISA, phage scFv supernatant 1:50
Description: The supernatants were diluted 50-fold, and the binding OD values of the diluted supernatants to hNectin-4-His were measured by ELISA. The samples were serially 3-fold diluted, and the EC₅₀ titer for the binding of the supernatants to the antigen was measured by ELISA. […] The light chain variable region sequence is set forth in SEQ ID NO: 25. The OD value is the measurement of ELISA, and the EC₅₀ value denotes the EC₅₀ value of the binding activity titer of the supernatant to the antigen.

| Binder | OD value [OD] |
| --- | --- |
| 1F3-2F1 scFv (scFv, V domains shown, phage clone supernatant) VH: EVQLVESGGGLVQPGGSLRLSCAASGDIFTGYSMSWVRQAPGKGLEWVSGIYQTGSNTRYADSVKGRFTISRDNSKNTLYLQMNSLRAEDTAVYYCARAELLAFDVYTASDYWGQGTLVTVSS VL: DIQMTQSPSSLSASVGDRVTITCRASQGISSYLAWYQQKPGKAPKLLIYAASSLQSGVPSRFSGSGSGTDFTLTISSLQPEDFATYYCQQHYTTPPTFGQGTKVEIKR | 1.02 |
| 1G8-2D4 scFv (scFv, V domains shown, phage clone supernatant) VH: EVQLVESGGGLVQPGGSLRLSCAASGYNFGGYAMSWVRQAPGKGLEWVSRISGTSGNNDYADSVKGRFTISRDNSKNTLYLQMNSLRAEDTAVYYCARQTEDRSYGYDLDYWGQGTLVTVSS VL: DIQMTQSPSSLSASVGDRVTITCRASQGISSYLAWYQQKPGKAPKLLIYAASSLQSGVPSRFSGSGSGTDFTLTISSLQPEDFATYYCQQHYTTPPTFGQGTKVEIKR | 1.58 |
| 1G8-1C10 scFv (scFv, V domains shown, phage clone supernatant) VH: EVQLVESGGGLVQPGGSLRLSCAASGFNFSDYSMSWVRQAPGKGLEWVSRIKASSGGSDYADSVKGRFTISRDNSKNTLYLQMNSLRAEDTAVYYCARQTEDRSYGYDLDYWGQGTLVTVSS VL: DIQMTQSPSSLSASVGDRVTITCRASQGISSYLAWYQQKPGKAPKLLIYAASSLQSGVPSRFSGSGSGTDFTLTISSLQPEDFATYYCQQHYTTPPTFGQGTKVEIKR | 1.61 |
| 1G8-1A12 scFv (scFv, V domains shown, phage clone supernatant) VH: EVQLVESGGGLVQPGGSLRLSCAASGGTFDTNAMSWVRQAPGKGLEWVSAISTGGDNKRYADSVKGRFTISRDNSKNTLYLQMNSLRAEDTAVYYCARQTEDRSYGYDLDYWGQGTLVTVSS VL: DIQMTQSPSSLSASVGDRVTITCRASQGISSYLAWYQQKPGKAPKLLIYAASSLQSGVPSRFSGSGSGTDFTLTISSLQPEDFATYYCQQHYTTPPTFGQGTKVEIKR | 1.61 |
| 1G8-1B11 scFv (scFv, V domains shown, phage clone supernatant) VH: EVQLVESGGGLVQPGGSLRLSCAASGYNFSNYAMSWVRQAPGKGLEWVSAIDASGGDTRYADSVKGRFTISRDNSKNTLYLQMNSLRAEDTAVYYCARQTEDRSYGYDLDYWGQGTLVTVSS VL: DIQMTQSPSSLSASVGDRVTITCRASQGISSYLAWYQQKPGKAPKLLIYAASSLQSGVPSRFSGSGSGTDFTLTISSLQPEDFATYYCQQHYTTPPTFGQGTKVEIKR | 1.58 |
| 1F3-2F6 scFv (scFv, V domains shown, phage clone supernatant) VH: EVQLVESGGGLVQPGGSLRLSCAASGFTFSDYGMSWVRQAPGKGLEWVSRISQYGGGIRYADSVKGRFTISRDNSKNTLYLQMNSLRAEDTAVYYCARAELLAFDVYTASDYWGQGTLVTVSS VL: DIQMTQSPSSLSASVGDRVTITCRASQGISSYLAWYQQKPGKAPKLLIYAASSLQSGVPSRFSGSGSGTDFTLTISSLQPEDFATYYCQQHYTTPPTFGQGTKVEIKR | 1.52 |
| 1F3-2H6 scFv (scFv, V domains shown, phage clone supernatant) VH: EVQLVESGGGLVQPGGSLRLSCAASGYTFSSYGMSWVRQAPGKGLEWVSRIKSDGGDTHYADSVKGRFTISRDNSKNTLYLQMNSLRAEDTAVYYCARAELLAFDVYTASDYWGQGTLVTVSS VL: DIQMTQSPSSLSASVGDRVTITCRASQGISSYLAWYQQKPGKAPKLLIYAASSLQSGVPSRFSGSGSGTDFTLTISSLQPEDFATYYCQQHYTTPPTFGQGTKVEIKR | 1.31 |
| 1F3-2F3 scFv (scFv, V domains shown, phage clone supernatant) VH: EVQLVESGGGLVQPGGSLRLSCAASGFNFSDYGMSWVRQAPGKGLEWVSRIDWDGGNTRYADSVKGRFTISRDNSKNTLYLQMNSLRAEDTAVYYCARAELLAFDVYTASDYWGQGTLVTVSS VL: DIQMTQSPSSLSASVGDRVTITCRASQGISSYLAWYQQKPGKAPKLLIYAASSLQSGVPSRFSGSGSGTDFTLTISSLQPEDFATYYCQQHYTTPPTFGQGTKVEIKR | 1.57 |
| 1F3-2H12 scFv (scFv, V domains shown, phage clone supernatant) VH: EVQLVESGGGLVQPGGSLRLSCAASGDSFDSSGMSWVRQAPGKGLEWVSGIKWITGESYYADSVKGRFTISRDNSKNTLYLQMNSLRAEDTAVYYCARAELLAFDVYTASDYWGQGTLVTVSS VL: DIQMTQSPSSLSASVGDRVTITCRASQGISSYLAWYQQKPGKAPKLLIYAASSLQSGVPSRFSGSGSGTDFTLTISSLQPEDFATYYCQQHYTTPPTFGQGTKVEIKR | 1.59 |
| 1G8-1C1 scFv (scFv, V domains shown, phage clone supernatant) VH: EVQLVESGGGLVQPGGSLRLSCAASGYIFSNYAMSWVRQAPGKGLEWVSRISTGFAGPDYADSVKGRFTISRDNSKNTLYLQMNSLRAEDTAVYYCARQTEDRSYGYDLDYWGQGTLVTVSS VL: DIQMTQSPSSLSASVGDRVTITCRASQGISSYLAWYQQKPGKAPKLLIYAASSLQSGVPSRFSGSGSGTDFTLTISSLQPEDFATYYCQQHYTTPPTFGQGTKVEIKR | 1.5 |
| 1F3-2G9 scFv (scFv, V domains shown, phage clone supernatant) VH: EVQLVESGGGLVQPGGSLRLSCAASGFTFGGYGMSWVRQAPGKGLEWVSWISAWDGSIYYADSVKGRFTISRDNSKNTLYLQMNSLRAEDTAVYYCARAELLAFDVYTASDYWGQGTLVTVSS VL: DIQMTQSPSSLSASVGDRVTITCRASQGISSYLAWYQQKPGKAPKLLIYAASSLQSGVPSRFSGSGSGTDFTLTISSLQPEDFATYYCQQHYTTPPTFGQGTKVEIKR | 1.38 |
| 1G8-1C8 scFv (scFv, V domains shown, phage clone supernatant) VH: EVQLVESGGGLVQPGGSLRLSCAASGFSFGSSAMSWVRQAPGKGLEWVSAISGSSDSPRYADSVKGRFTISRDNSKNTLYLQMNSLRAEDTAVYYCARQTEDRSYGYDLDYWGQGTLVTVSS VL: DIQMTQSPSSLSASVGDRVTITCRASQGISSYLAWYQQKPGKAPKLLIYAASSLQSGVPSRFSGSGSGTDFTLTISSLQPEDFATYYCQQHYTTPPTFGQGTKVEIKR | 1.59 |
| 1G8-1A3 scFv (scFv, V domains shown, phage clone supernatant) VH: EVQLVESGGGLVQPGGSLRLSCAASGYNFGSYAMSWVRQAPGKGLEWVSRIYPGSWSPDYADSVKGRFTISRDNSKNTLYLQMNSLRAEDTAVYYCARQTEDRSYGYDLDYWGQGTLVTVSS VL: DIQMTQSPSSLSASVGDRVTITCRASQGISSYLAWYQQKPGKAPKLLIYAASSLQSGVPSRFSGSGSGTDFTLTISSLQPEDFATYYCQQHYTTPPTFGQGTKVEIKR | 1.62 |
| 1F3-2G10 scFv (scFv, V domains shown, phage clone supernatant) VH: EVQLVESGGGLVQPGGSLRLSCAASGFNFSNYGMSWVRQAPGKGLEWVSRIKPTDGSTHYADSVKGRFTISRDNSKNTLYLQMNSLRAEDTAVYYCARAELLAFDVYTASDYWGQGTLVTVSS VL: DIQMTQSPSSLSASVGDRVTITCRASQGISSYLAWYQQKPGKAPKLLIYAASSLQSGVPSRFSGSGSGTDFTLTISSLQPEDFATYYCQQHYTTPPTFGQGTKVEIKR | 1.54 |
| 1G8-1A7 scFv (scFv, V domains shown, phage clone supernatant) VH: EVQLVESGGGLVQPGGSLRLSCAASGYTFDSYAMSWVRQAPGKGLEWVSRIKTTDDGKSYADSVKGRFTISRDNSKNTLYLQMNSLRAEDTAVYYCARQTEDRSYGYDLDYWGQGTLVTVSS VL: DIQMTQSPSSLSASVGDRVTITCRASQGISSYLAWYQQKPGKAPKLLIYAASSLQSGVPSRFSGSGSGTDFTLTISSLQPEDFATYYCQQHYTTPPTFGQGTKVEIKR | 1.57 |
| 1G8-1B7 scFv (scFv, V domains shown, phage clone supernatant) VH: EVQLVESGGGLVQPGGSLRLSCAASGYSFSNYAMSWVRQAPGKGLEWVSRISAWGSTNNYADSVKGRFTISRDNSKNTLYLQMNSLRAEDTAVYYCARQTEDRSYGYDLDYWGQGTLVTVSS VL: DIQMTQSPSSLSASVGDRVTITCRASQGISSYLAWYQQKPGKAPKLLIYAASSLQSGVPSRFSGSGSGTDFTLTISSLQPEDFATYYCQQHYTTPPTFGQGTKVEIKR | 1.56 |
